From patent US6482925
Where two headings read alike, the source gives them in different places.

What was measured:
[1] = target: MHC class II molecules on Daudi B cells; assay: 51Cr Daudi cell adhesion; wild-type expression titrated by DNA quantity
[2] = target: MHC class II molecules on Daudi B cells; assay: 51Cr Daudi cell adhesion to transfected Cos-7 cells; cpm relative to wild-type, background not subtracted
[3] = target: MHC class II molecules on Daudi B cells; assay: 51Cr Daudi cell adhesion to transfected Cos-7 cells
[4] = target: MHC class II molecules on Daudi B cells; assay: as above; remark: listed apart in the source

Row | Molecule | reduction of bound cpm against wild-type LAG-3 at comparable expression [1] [%] | Adhesion (relative to wild-type LAG-3) [2] | fold reduction of binding against wild-type LAG-3 [3] [fold] | fold reduction of binding against wild-type LAG-3 [4] [fold] | fold increase of binding against wild-type LAG-3 [3] [fold]
1 | LAG-3 deletion mutant (54/66), deletion of the tip of the external loop (from UniProt P18627 23-492) (receptor) | 40 | 0.08 |  |  | 
2 | LAG-3 deletion mutant (D2), deletion of domain D2 (from UniProt P18627 23-492) (receptor) | 40 | 0.11 |  |  | 
3 | LAG-3 mutant H56A (receptor) LQPGAEVPVVWAQEGAPAQLPCSPTIPLQDLSLLRRAGVTWQHQPDSGPPAAAPGAPLAPGPHPAAPSSWGPRPRRYTVLSVGPGGLRSGRLPLQPRVQLDERGRQRGDFSLWLRPARRADAGEYRAAVHLRDRALSCRLRLRLGQASMTASPPGSLRASDWVILNCSFSRPDRPASVHWFRNRGQGRVPVRESPHHHLAESFLFLPQVSPMDSGPWGCILTYRDGFNVSIMYNLTVLGLEPPTPLTVYAGAGSRVGLPCRLPAGVGTRSFLTAKWTPPGGGPDLLVTGDNGDFTLRLEDVSQAQAGTYTCHIHLQEQQLNATVTLAIITVTPKSFGSPGSLGKLLCEVTPVSGQERFVWSSLDTPSQRSFSGPWLEAQEAQLLSQPWQCQLYQGERLLGAAVYFTELSSPGAQRSGRAPGALPAGHLLLFLTLGVLSLLLLVTGAFGFHLWRRQWRPRRFSALEQGIHPRRLRAR | 40 | 0.45 | 2 | > 2 | 
4 | LAG-3 mutant R73E (receptor) LQPGAEVPVVWAQEGAPAQLPCSPTIPLQDLSLLRRAGVTWQHQPDSGPPAAAPGHPLAPGPHPAAPSSWGPEPRRYTVLSVGPGGLRSGRLPLQPRVQLDERGRQRGDFSLWLRPARRADAGEYRAAVHLRDRALSCRLRLRLGQASMTASPPGSLRASDWVILNCSFSRPDRPASVHWFRNRGQGRVPVRESPHHHLAESFLFLPQVSPMDSGPWGCILTYRDGFNVSIMYNLTVLGLEPPTPLTVYAGAGSRVGLPCRLPAGVGTRSFLTAKWTPPGGGPDLLVTGDNGDFTLRLEDVSQAQAGTYTCHIHLQEQQLNATVTLAIITVTPKSFGSPGSLGKLLCEVTPVSGQERFVWSSLDTPSQRSFSGPWLEAQEAQLLSQPWQCQLYQGERLLGAAVYFTELSSPGAQRSGRAPGALPAGHLLLFLTLGVLSLLLLVTGAFGFHLWRRQWRPRRFSALEQGIHPRRLRAR |  | 3.25 |  |  | > 3
5 | LAG-3 mutant D30A (receptor) LQPGAEVPVVWAQEGAPAQLPCSPTIPLQALSLLRRAGVTWQHQPDSGPPAAAPGHPLAPGPHPAAPSSWGPRPRRYTVLSVGPGGLRSGRLPLQPRVQLDERGRQRGDFSLWLRPARRADAGEYRAAVHLRDRALSCRLRLRLGQASMTASPPGSLRASDWVILNCSFSRPDRPASVHWFRNRGQGRVPVRESPHHHLAESFLFLPQVSPMDSGPWGCILTYRDGFNVSIMYNLTVLGLEPPTPLTVYAGAGSRVGLPCRLPAGVGTRSFLTAKWTPPGGGPDLLVTGDNGDFTLRLEDVSQAQAGTYTCHIHLQEQQLNATVTLAIITVTPKSFGSPGSLGKLLCEVTPVSGQERFVWSSLDTPSQRSFSGPWLEAQEAQLLSQPWQCQLYQGERLLGAAVYFTELSSPGAQRSGRAPGALPAGHLLLFLTLGVLSLLLLVTGAFGFHLWRRQWRPRRFSALEQGIHPRRLRAR | 40 | 0.41 | 2 |  | 
6 | LAG-3 mutant R75A (receptor) LQPGAEVPVVWAQEGAPAQLPCSPTIPLQDLSLLRRAGVTWQHQPDSGPPAAAPGHPLAPGPHPAAPSSWGPRPARYTVLSVGPGGLRSGRLPLQPRVQLDERGRQRGDFSLWLRPARRADAGEYRAAVHLRDRALSCRLRLRLGQASMTASPPGSLRASDWVILNCSFSRPDRPASVHWFRNRGQGRVPVRESPHHHLAESFLFLPQVSPMDSGPWGCILTYRDGFNVSIMYNLTVLGLEPPTPLTVYAGAGSRVGLPCRLPAGVGTRSFLTAKWTPPGGGPDLLVTGDNGDFTLRLEDVSQAQAGTYTCHIHLQEQQLNATVTLAIITVTPKSFGSPGSLGKLLCEVTPVSGQERFVWSSLDTPSQRSFSGPWLEAQEAQLLSQPWQCQLYQGERLLGAAVYFTELSSPGAQRSGRAPGALPAGHLLLFLTLGVLSLLLLVTGAFGFHLWRRQWRPRRFSALEQGIHPRRLRAR |  | 4.2 |  |  | > 3

Further lines, results first:

Row | reduction of bound cpm against wild-type LAG-3 at comparable expression [1] [%] | Adhesion (relative to wild-type LAG-3) [2] | fold reduction of binding against wild-type LAG-3 [3] [fold] | fold reduction of binding against wild-type LAG-3 [4] [fold] | fold increase of binding against wild-type LAG-3 [3] [fold] | Molecule
7 | 40 | 0.05 |  |  |  | LAG-3 mutant Y77F (receptor) LQPGAEVPVVWAQEGAPAQLPCSPTIPLQDLSLLRRAGVTWQHQPDSGPPAAAPGHPLAPGPHPAAPSSWGPRPRRFTVLSVGPGGLRSGRLPLQPRVQLDERGRQRGDFSLWLRPARRADAGEYRAAVHLRDRALSCRLRLRLGQASMTASPPGSLRASDWVILNCSFSRPDRPASVHWFRNRGQGRVPVRESPHHHLAESFLFLPQVSPMDSGPWGCILTYRDGFNVSIMYNLTVLGLEPPTPLTVYAGAGSRVGLPCRLPAGVGTRSFLTAKWTPPGGGPDLLVTGDNGDFTLRLEDVSQAQAGTYTCHIHLQEQQLNATVTLAIITVTPKSFGSPGSLGKLLCEVTPVSGQERFVWSSLDTPSQRSFSGPWLEAQEAQLLSQPWQCQLYQGERLLGAAVYFTELSSPGAQRSGRAPGALPAGHLLLFLTLGVLSLLLLVTGAFGFHLWRRQWRPRRFSALEQGIHPRRLRAR
8 | 40 | 0.23 |  |  |  | LAG-3 mutant R115A (receptor) LQPGAEVPVVWAQEGAPAQLPCSPTIPLQDLSLLRRAGVTWQHQPDSGPPAAAPGHPLAPGPHPAAPSSWGPRPRRYTVLSVGPGGLRSGRLPLQPRVQLDERGRQRGDFSLWLAPARRADAGEYRAAVHLRDRALSCRLRLRLGQASMTASPPGSLRASDWVILNCSFSRPDRPASVHWFRNRGQGRVPVRESPHHHLAESFLFLPQVSPMDSGPWGCILTYRDGFNVSIMYNLTVLGLEPPTPLTVYAGAGSRVGLPCRLPAGVGTRSFLTAKWTPPGGGPDLLVTGDNGDFTLRLEDVSQAQAGTYTCHIHLQEQQLNATVTLAIITVTPKSFGSPGSLGKLLCEVTPVSGQERFVWSSLDTPSQRSFSGPWLEAQEAQLLSQPWQCQLYQGERLLGAAVYFTELSSPGAQRSGRAPGALPAGHLLLFLTLGVLSLLLLVTGAFGFHLWRRQWRPRRFSALEQGIHPRRLRAR
9 |  | 0.49 | 2 |  |  | LAG-3 mutant R103A (receptor) LQPGAEVPVVWAQEGAPAQLPCSPTIPLQDLSLLRRAGVTWQHQPDSGPPAAAPGHPLAPGPHPAAPSSWGPRPRRYTVLSVGPGGLRSGRLPLQPRVQLDEAGRQRGDFSLWLRPARRADAGEYRAAVHLRDRALSCRLRLRLGQASMTASPPGSLRASDWVILNCSFSRPDRPASVHWFRNRGQGRVPVRESPHHHLAESFLFLPQVSPMDSGPWGCILTYRDGFNVSIMYNLTVLGLEPPTPLTVYAGAGSRVGLPCRLPAGVGTRSFLTAKWTPPGGGPDLLVTGDNGDFTLRLEDVSQAQAGTYTCHIHLQEQQLNATVTLAIITVTPKSFGSPGSLGKLLCEVTPVSGQERFVWSSLDTPSQRSFSGPWLEAQEAQLLSQPWQCQLYQGERLLGAAVYFTELSSPGAQRSGRAPGALPAGHLLLFLTLGVLSLLLLVTGAFGFHLWRRQWRPRRFSALEQGIHPRRLRAR
